Here are results for one substance from publication PMC9810080.

Assay [1] concerns the target CaM1 peptide, CNGB1 residues 565–589 (UniProt Q14028). The assay is described as follows: ITC. For orientation: ITC needs no label: the signal is the heat of the interaction.
Assay [2] deals with CaM2 peptide, CNGB1 residues 1120–1147 (UniProt Q14028). The assay is described as follows: ITC.
CaM2 peptide, CNGB1 residues 1120–1147, sequence (Q14028 1120-1147): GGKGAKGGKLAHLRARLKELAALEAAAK

CaM1 peptide, CNGB1 residues 565–589, sequence (Q14028 565-589): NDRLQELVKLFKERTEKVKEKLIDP

What is called stoichiometry N is a count of units in the complex or per binding partner. With “Calmodulin (CaM), full-length (from UniProt P0DP23 1-149) (natural protein)”, in assay [1], the Kd of the endothermic site (two-site fit) stood at 240 µM, the apparent Kd of the exothermic site (two-site fit) came out at 1 µM, the dH1 (site 1 of the two-site fit) was -7.5 kcal/mol and the stoichiometry N was determined as 2 CaM1 per CaM. Besides, in assay [2], the dH worked out at 2.1 kcal/mol, the dH1 (site 1 of the two-site fit) is -4.5 kcal/mol and the stoichiometry N stood at 2 CaM2 per CaM.
